Source: patent publication US7279548B2, “Identification and isolation of novel polypeptides having WW domains and methods of using same” (Cytogen Corporation, priority 1996, dated 2007)
No end group written: not given here.

Assays:
[1] = target: T1, WW domains of WWP1 expressed as GST fusion proteins (Homo sapiens, UniProt Q9H0M0); assay: ELISA based cross affinity mapping, WW domains of WWP1; assay type: binding; conditions: GST fusion protein
T1 construct: twelve individual novel WW domains of WWP1, WWP2, WWP3 and WWP4 which were expressed as GST fusion proteins; made in house
Method: (§1) The 16 day mouse embryo cDNA expression library was diluted 1:1000 in SM solution (100 mM NaCl, 8 mM MgSOv4, 50 mM Tris HCl pH 7.5, 0.01% gelatin). To a sterile test tube, 2 μl of diluted mouse embryo library, 100 μl of 10 mM CaCl2, 100 μl of 10 mM MgCl2 and 100 μl of BL21(DE3)pLysE bacterial cells (grown overnight) were added and incubated for 30 minutes at 37° C. The contents of the tube were mixed with 3 ml of 0.6% top agarose, containing […] chloramphenicol, and poured onto a 2xYT plate (90 mm diameter). For a large primary screen, 10–20 plates were prepared with 3×10^4 pfu per plate. After 6 hours incubation at 37° C., a nitrocellulose filter soaked in 10 mM isopropyl-β-D-thiogalactopyranoside (IPTG) was overlaid on each plate and incubated 3–6 hours at 37° C. Before the filters were removed from the plates, they were marked asymmetrically with India ink in a 18 gauge syringe needle. The plates were stored at 4° C. until ready for the secondary screen. The filters were washed with PBS (137 mM NaCl, 2.7 mM KCl, 4.3 mM Na2HPO4, 1.4 mM KH2PO4)-0.05% Triton X-100 three times at room temperature, 15 minutes each wash, and then placed in a plastic bag containing non-specific blocking solution (PBS-2% BSA) for one hour. In the meantime, 1 ml of 1 mM biotinylated peptide in PBS-0.1% Tween 20 was added to 20 ml of 1 mg/ml streptavidin-alkaline phosphatase (SA-AP) in PBS-0.1% Tween 20 and incubated at 4° C. for 30 minutes. […] Excess biotin-binding sites would then be blocked by addition of 500 pmol biotin. […] Ten μl of 0.1 mM biotin would then be added, and the solution incubated for an additional 15 min.
(§2) To determine the ligand preferences of the novel WW omain-containing clones described in Sections 6.1 and 6.1.1, as well as addressing the issue of whether peptides containing PPPPY (SEQ ID NO:3)-like motifs derived from a variety of proteins could also serve as recognition units and bind to these clones, a cross affinity mapping experiment was performed (FIGS. 15A–D). The peptides shown in FIGS. 15A–D were synthesized, biotinylated, complexed with streptavidin-alkaline phosphatase, and tested in an ELISA based assay for their ability to bind to the twelve individual novel WW domains of WWP1, WWP2, WWP3 and WWP4 which were expressed as GST fusion proteins. The ELISA based cross-affinity experiments were performed essentially as described by Sparks et al. (1996, Proc. Natl. Acad. Sci. 93:1540–1544) with the following modifications. Briefly, microtiter wells were coated with 1–5 μg of fusion protein in 100 mM NaHCO3, blocked with SuperBlock TBS (Pierce) and washed four times with PBS, 0.05% Tween 20. Specific peptide-streptavidin/alkaline phosphatase complexes were added as above and unbound complexes washed five times with PBS, 0.05% Tween 20. Following addition of PNP substrate (p-nitrophenyl phosphate, Kirkegard & Perry Labs), peptide binding was quantitated after 30 min. at O.D. 405 nm. Relative binding measurements from three independent determinations were assigned to a scale as follows: O.D. units 0–0.5=(−), 0.5–1.0=(+), 1.0–2.0=(++), 2.0–3.0=(+++), >3.0=(++++). Peptide binding to human Fyn and Lyn SH3 and SH2 domains was assessed by a filter binding assay (see Section 6.1 and Sparks et al., 1996, Proc. Natl. Acad. Sci 93:1540–1544). Peptide sequences used in cross-affinity experiments correspond to segments of the following genes: RasGap (Database accession # P20936), AP-2 (P05549), p53BP-2 (U09582), IL-6Rα (P22272), voltage-gated chloride channel CLCN5 (X91906), IL-2Rγ (D111086), RSV (D10652), HTLV-1 (D13784), β-dystroglycan (L19711), Formin (X53599), amiloride-sensitive epithelial Na^+ channel ENaCα (P37089), ENaCβ (X87159) and ENaCγ (X87160), muscarinic acetylcholine receptor M4 AChR (P08173), and c-Abl (P00522). Src and Crk SH3 binding peptide sequences were derived from a phage display random peptide library screen (Section 6.1 and Sparks et al., 1996, Proc. Natl. Acad. Sci. 93:1540–1544).

[2] = target: T2, WW domains of WWP2 expressed as GST fusion proteins (Homo sapiens, UniProt O00308); assay: ELISA based cross affinity mapping, WW domains of WWP2; assay type: binding
T2 construct: twelve individual novel WW domains of WWP1, WWP2, WWP3 and WWP4 which were expressed as GST fusion proteins; made in house
Method: as §1, §2

[3] = system: WW domains of WWP4 expressed as GST fusion proteins; assay: ELISA based cross affinity mapping, WW domains of WWP4; assay type: binding, human; conditions: biotinylated peptide-streptavidin/alkaline phosphatase complex; GST fusion proteins; ELISA
Method: as §1, §2

[4] = system: twelve individual novel WW domains of WWP1, WWP2, WWP3 and WWP4; assay: ELISA based cross affinity mapping, whole panel of novel WW domains; assay type: binding, human; conditions: biotinylated peptide-streptavidin/alkaline phosphatase complex, GST fusion proteins
Method: as §1, §2

[5] = system: WW domains of WWP1 expressed as GST fusion proteins; assay: ELISA based cross affinity mapping, WW domains of WWP1; assay type: binding, human; conditions: biotinylated peptide-streptavidin/alkaline phosphatase complex; GST fusion proteins; ELISA
Method: as §1, §2

[6] = system: WW domains of WWP2 expressed as GST fusion proteins; assay: ELISA based cross affinity mapping, WW domains of WWP2; assay type: binding, human; conditions: biotinylated peptide-streptavidin/alkaline phosphatase complex; GST fusion proteins; ELISA
Method: as §1, §2

[7] = target: T3, WW domains of WWP4 expressed as GST fusion proteins (Homo sapiens, UniProt Q96PU5); assay: ELISA based cross affinity mapping, WW domains of WWP4; assay type: binding; conditions: GST fusion protein
T3 construct: twelve individual novel WW domains of WWP1, WWP2, WWP3 and WWP4 which were expressed as GST fusion proteins; made in house
Method: as §1, §2

| Substance | binding to individual WW domain WWP1.2 [1] | binding to individual WW domain WWP2.3 ([2]; GST fusion protein) | binding to WW domains of WWP4 [3] | binding to individual WW domain WWP1.4 [1] | binding to individual WW domain WWP2.4 ([2]; GST fusion protein) | binding to the novel WW domains (WWP1, WWP2, WWP3, WWP4 panel) [4] | binding to individual WW domain WWP1.1 [1] | binding to WW domains of WWP1 [5] | binding to individual WW domain WWP2.1 ([2]; GST fusion protein) | binding to individual WW domain WWP2.2 ([2]; GST fusion protein) | O.D. after 30 minutes at 405 nm ([2]; individual WW domain WW2.4, GST fusion protein) | binding to WW domains of WWP2 [6] | binding to individual WW domain WWP4.1 [7] | binding to individual WW domain WWP4.2 [7] | binding to individual WW domain WWP4.3 [7] |
| --- | --- | --- | --- | --- | --- | --- | --- | --- | --- | --- | --- | --- | --- | --- | --- |
| WBP-1-Pro2: alanine substitution variant of WBP-1 at the second proline residue of the PPPPY motif (SGSGPGTPAPPYTVGPGY) | did not abolish binding | did not abolish binding | loss of binding activity |  |  |  |  |  |  |  |  |  |  |  |  |
| CLCN5: peptide from the voltage-gated renal chloride channel CLCN5 (X91906) (SPPLPPYTPP) |  |  |  | appreciable binding | appreciable binding | bound to WW domains from one or more of the four novel clones |  |  |  |  |  |  |  |  |  |
| bWW059: biotinylated peptide corresponding to the wild-type PPPPY-like motif in the HECT domain of WWP4 (NRLDLPPYETFED; also: biotinylated, site not given here) |  |  | bind to individual WW domains | binds | binds |  | binds | bind to individual WW domains | binds | binds | 3.0 | bind to individual WW domains | binds | binds | binds |
